Common to all, as to experiment: FRET or BRET
(In general: Bioluminescence resonance energy transfer reports proximity on the nanometre scale.)

In one experiment the target is mCerulean3-BCL-W (mouse) (UniProt P70345).
The target of another experiment is mCerulean3-BCL-2 (human) (UniProt P10415).
Experiment [1] deals with mCerulean3-BCL-XL (human) (UniProt Q07817).
mCerulean3-BCL-XL (human), sequence (Q07817 whole entry): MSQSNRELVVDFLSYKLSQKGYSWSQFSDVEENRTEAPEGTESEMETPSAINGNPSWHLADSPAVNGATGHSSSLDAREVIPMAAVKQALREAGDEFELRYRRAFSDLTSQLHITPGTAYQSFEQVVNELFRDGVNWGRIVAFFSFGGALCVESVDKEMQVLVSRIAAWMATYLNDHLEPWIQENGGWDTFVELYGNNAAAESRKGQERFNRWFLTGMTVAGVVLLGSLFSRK

mCerulean3-BCL-W (mouse), sequence (P70345 whole entry): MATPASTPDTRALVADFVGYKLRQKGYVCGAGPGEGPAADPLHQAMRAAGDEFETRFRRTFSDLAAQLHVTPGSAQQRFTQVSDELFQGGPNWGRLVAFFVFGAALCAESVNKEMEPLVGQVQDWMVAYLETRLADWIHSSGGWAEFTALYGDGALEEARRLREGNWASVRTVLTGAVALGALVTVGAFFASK
mCerulean3-BCL-2 (human), sequence (P10415 whole entry): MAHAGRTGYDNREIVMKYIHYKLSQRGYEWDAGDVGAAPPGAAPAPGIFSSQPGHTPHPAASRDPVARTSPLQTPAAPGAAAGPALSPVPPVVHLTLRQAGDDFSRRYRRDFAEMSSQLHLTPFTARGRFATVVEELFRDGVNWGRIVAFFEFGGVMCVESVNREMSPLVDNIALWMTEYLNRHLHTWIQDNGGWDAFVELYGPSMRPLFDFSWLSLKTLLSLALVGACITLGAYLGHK

As for Venus-tBID (natural protein), the results for the Kd (with mCerulean3-BCL-W (mouse); in the experiment with mCerulean3-BCL-2 (human); in experiment [1]) were 6 µM, 3 µM and 5 µM, respectively.

In general, Kd refers to a measure of binding affinity in units of concentration.

The values are drawn from paper PMC9020777.
